Reference: patent publication US5292651

Tests used:
[1] = target: T1, NaeI restriction endonuclease (recombinant, from pCTnaeIR16-1) T2A (Nocardia aerocolonigenes) (UniProt P50187); assay: cleavage_in_vitro; conditions: 60 U, 4 h, 37 C, 10 mM MgCl2; nonspecific nicking test
T1 sequence: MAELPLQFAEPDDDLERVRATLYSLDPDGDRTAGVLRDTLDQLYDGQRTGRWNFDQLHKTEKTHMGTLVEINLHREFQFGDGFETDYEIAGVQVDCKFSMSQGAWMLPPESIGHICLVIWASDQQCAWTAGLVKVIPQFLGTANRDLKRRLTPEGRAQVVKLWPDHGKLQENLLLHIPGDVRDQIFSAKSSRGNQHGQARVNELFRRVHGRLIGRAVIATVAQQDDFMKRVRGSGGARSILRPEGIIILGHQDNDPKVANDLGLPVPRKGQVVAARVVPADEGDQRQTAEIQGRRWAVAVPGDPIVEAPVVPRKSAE

[2] = target: T2, NaeI restriction endonuclease (recombinant, crude extract of NEB#777) T2A (Nocardia aerocolonigenes) (UniProt P50187); assay: cleavage_in_vitro; conditions: PstI-codigested pBR322, NEBuffer 1, 37 C, 1 h; after overnight IPTG induction
T2 sequence: T1 sequence

Work on phiX174 RFI DNA yielded an activity (% RFI converted to RFII) [1] of less than 5.

Substance pBR322 plasmid DNA has an activity [2] of 77000 U/g cells.
